Measurements taken from paper PMC7347944.
Where “and” joins values, the source holds several entries; their conditions need not be identical. Identical values can stand only once.

How the values were obtained:
huPrP(23−144) (human) [1] = target: huPrP(23−144) (human) (UniProt P04156); test: NMR titration
huPrP(23−144) (human) [2] = target: huPrP(23−144) (human) (UniProt P04156); test: co-sedimentation

## α-synuclein oligomers (from UniProt P37840 1-140) (complex)
huPrP(23−144) (human) [1]
  stoichiometry N (αSyn:huPrP molar ratio): 1.45 and 0.92
huPrP(23−144) (human) [2]
  stoichiometry N (αSyn:huPrP(23−144)): 0.96
